Patent US20080311122A1, “Antagonists of Hmgb1 and/or Rage and Methods of Use Thereof” (Medimmune, LLC, priority 2005, published 2008)
Entries after “also recorded” stand apart in the source; their conditions may differ.

T1: recombinant HMG1 binding to RAGE-Fc (Homo sapiens, UniProt P09429)
T1 construct: made in house; host or cells: E. coli (HMG1)
T1 sequence (P09429 1-215): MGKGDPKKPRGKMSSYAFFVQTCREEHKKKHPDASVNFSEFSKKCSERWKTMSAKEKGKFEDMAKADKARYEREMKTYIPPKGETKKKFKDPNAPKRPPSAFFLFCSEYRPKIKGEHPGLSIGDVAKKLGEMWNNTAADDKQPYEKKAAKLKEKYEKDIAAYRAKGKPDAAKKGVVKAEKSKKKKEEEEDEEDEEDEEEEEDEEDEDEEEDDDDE

T2: HMG2 (Bos taurus, UniProt P40673)
T2 construct: from tissue; host or cells: calf thymus (as read from the sentence)
T2 sequence (P40673 1-209): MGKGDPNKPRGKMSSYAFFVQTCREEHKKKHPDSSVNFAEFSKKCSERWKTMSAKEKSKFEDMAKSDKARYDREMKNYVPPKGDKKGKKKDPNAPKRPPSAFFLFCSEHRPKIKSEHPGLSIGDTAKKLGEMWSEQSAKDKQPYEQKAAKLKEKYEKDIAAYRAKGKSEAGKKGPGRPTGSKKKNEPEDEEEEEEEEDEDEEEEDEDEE


Assays:
[1] = target: T1, recombinant HMG1 binding to RAGE-Fc; test: HMG1 binding to RAGE-Ig by ELISA; details: at the concentrations tested
Protocol: HMG1 binding to RAGE-Ig by ELISA: 50 μl/well of RAGE-Fc fusion protein at 5 μg/ml in PBS was added to each well of an ELISA plate and incubated overnight at 4° C. The plate was then blocked with 200 μl of 5% milk at 37° C. for 1 hr and washed 3× with PBS/Tween. 50 μl/well of diluted HMGB1 solution. For dose curves, HMGB1 concentrations started at 4 ug/ml in PBS. For antibody blocking the HMGB1 was preincubated in another plate with human anti-HMG1 antibodies or buffer, then transferred to the RAGE-coated plate. The plates were then incubated at room temperature for 2 hours and washed 3×. To detect any HMG1 bound to the immobilized RAGE-Fc a mixture of biotinylated mouse anti-HMG1 mAbs (10D4, 4H11, 3E10 and 5C12) each at 1 ug/ml, total Ab: 4 ug/ml, were added to each well and the plate was incubated for 1 hour at room temperature. The plate was then washed and Strepavidin-HPR was added to each well and incubated 15 min. The plate was then washed 3× and blotted dry. 100 μl of TMB developing agent was added and the plate read at 650 nm. Values were calculated as percent of inhibition with HMG1 alone equal to 0% inhibition. The data in FIG. 9 and summarized in Table 1 represent the average of two separate experiments.

[2] = tested on: HMG1 (recombinant, native; immobilized, soluble); test: Direct and sandwich (capture) ELISA comparing forms of HMG1; assay type: binding; details: for binding to immobilized versus soluble HMG1: two ELISA formats, rHMG1; for binding to recombinant HMG1 versus native HMG1: capture ELISA
Protocol: Direct ELISA (immobilized HMG1): Individual wells of a 96-well immunoplate (EIA/RIA plate, High binding, Costar) were coated with HMGB-1 at 5 μg/ml in PBS at 4° C. overnight. The plate was then blocked with 4% milk powder dissolved in PBS at 37° C. for 1 hour. The blocking solution was removed and replaced with human anti-HMG1 antibodies at various concentrations (see FIG. 4A). The plate was then washed (ELX-405 Plate washer, BIO-TEK) and secondary antibody (anti-human IgG-HRP, PIERCE) was added at a final concentration of 1:125,000 at 37° C. for 1 hour. HRP activity was detected with Sureblue HRP substrate (KPL). Plates were read at 450 nm using a Kinetic Microplate Reader (Molecular Devices).
Sandwich ELISA (soluble HMG1): Immunoplates (EIA/RIA plate, High binding, Costar) were coated with anti human IgG Fc at 10 μg/ml in PBS (pH 7.2) and incubated at 4° C. overnight. The coating reagent was removed and the plates were rinsed briefly with PBS. The plates were then blocked with 4% milk for 1 hour at 37° C. and rinsed with PBS. The anti-HMG1 antibodies were diluted in 4% milk. For serial dilutions, the antibodies were used at a starting concentration of 20 μg/ml. The diluted anti-HMG1 antibodies were then added into plate and incubated for 1 hr at 37° C. The plate was then washed 10 times with PBST (PBS/0.1% tween 20) and incubate with antigen (HMGB1, 2 μg/ml; or 0.7 μg/ml for native HMGB1) in 4% milk and incubated at 37° C. for 1 h. The plate was then wash 10 times and incubated with mouse anti-HMGB1, 1 μg/ml in 4% milk at 37° C. for 1 h. The plate was washed 10 times and incubated with anti-mouse IgG-HRP at 1:1000 at 37° C. for 1 h. The plate was then washed and developed. HRP activity was detected with Sureblue HRP substrate (KPL). Plates were read at 450 nm using a Kinetic Microplate Reader (Molecular Devices).

[3] = Isoelectric focusing gel electrophoresis; assay type: physicochemical
Protocol: Isoelectric Focusing Gel Electrophoresis: Isoelectric points were determined using a Pharmacia Biotech Multiphor 2 electrophoresis system with a multi temp 3 refrigerated bath recirculation unit and an EPS 3501 XL power supply. Pre-cast ampholine gels (Amersham Biosciences, pI range 2.5-10) were loaded with 5 μg of protein. Broad range pI marker standards (Amersham, pI range 3-10, 8 μL) were used to determine relative pI for the Mabs. Electrophoresis was performed at 1500 V, 50 mA for 105 minutes. The gel was fixed using a Sigma fixing solution (5×) diluted with purified water to 1×. Staining was performed overnight at room temperature using Simply Blue stain (Invitrogen). Destaining was carried out with a solution that consisted of 25% ethanol, 8% acetic acid and 67% purified water. Isoelectric points were determined using a Bio-Rad Densitometer relative to calibration curves of the standards.

HMG2 = target: T2, HMG2; test: Binding to HMG1 vs. HMG2 ELISA; set-up: species or system calf; details: immobilized antigen
Protocol: Binding to HMG1 vs. HMG2: Ultra high-binding ELISA plates (ThermoLab systems, #3855) were coated with either 5 ug/mL of Calf thymus HMGB1 or HMBG2 diluted in 10 mM Phosphate buffered saline (PBS), pH 7.2 and incubate overnight at 4 degrees. The plates were washed twice with Ca and Mg free PBS and 100 microliters of anti-HMGB1 antibody diluted in 10 mM PBS, pH 7.2+1% bovine serum albumin (BSA) to a final concentration of 10 ug/mL was added to each well and the plates were incubated 1 hour at room temperature. The wells were washed three times with 100 μl of PBS, pH 7.2. HRP labeled goat-anti-human IgG Kappa-chain (KPL, #14-10-10) and goat-anti-human IgG Lambda-chain (KPL, #14-10-11) were diluted in 10 mM PBS+1% BSA 1:1000 and 100 μl were added to each well and incubated for 1 hour at room temperature. The wells were then washed three times with 100 μl of PBS, pH 7.2. OPD substrate (Pierce chemical company, #34006) was prepared following the manufacturers instructions and 100 μl of prepared substrate was added to each well and the plates incubated at room temperature in the dark for 20-30 minutes. The reaction was stopped with the addition of 100 μl of 2M H2SO4, and the plates read on a plate reader at a wavelength of 490 nm.

| Molecule | block of recombinant HMG1 binding to RAGE [1] | binding to immobilized versus soluble HMG1 [2] | PI [3] | relative binding to HMG1 and HMG2 (HMG2) | binding to recombinant HMG1 versus native HMG1 [2] |
| --- | --- | --- | --- | --- | --- |
| G20: human anti-HMG1 antibody; VL/VH aa SEQ ID NO: 46/48 (antibody, listed as Homo sapiens, V domains shown) VH: EVQLLESGGGLVQPGGSLRLSCAASGFTFSWYDMFWVRQAPGKGLEWVSWISPSGGYTKYADSVKGRFTISRDNSKNTLYLQMNSLRAEDTAMYYCARSGLDYYDSSGYLDAFDIWGQGTMVTVSS VL: AQDIQMTQSPSSVSASVGDRVTITCRASQDVSIWLAWYQQKPGKAPKLLIFGASRLQSGVPSRFSGSRSGADFTLTIDSVQPEDFASYYCQQADSFPLTFGGGTKVEIK | do not at the concentrations tested | bind better to soluble rHMG1 | 7.8 | specific for HMG1 |  |
| S10: human anti-HMG1 antibody; VL/VH aa SEQ ID NO: 58/60 (antibody, listed as Homo sapiens, V domains shown) VH: EVQLLESGGGLVQPGGSLRLSCAASGFTFSWYDMWWVRQAPGKGLEWVSWIVPSGGITAYADSVKGRFTISRDNSKNTLYLQMNSLRAEDTATYYCARGNYGPSPFDYWGQGTLVTVSS VL: AQDIQMTQSPGTLSLSPGERATLSCRATQSVRKNFLAWYQQKPGQAPRLLIYDASSRATGIPDRFSGSGSGTDFTLTISRLEPEDFAVYYCQQYGNSPIIFGQGTRLEIK | significant ability to block the binding of HMG1 to RAGE | bound slightly better to immobilized rHMG1 | 8.76 | specific for HMG1 | better binding to rHMG1; also recorded: discriminating between recombinant and the various native forms; also recorded: bind better to recombinant HMG1 than to native nuclear HMG1 |
| G9: human anti-HMG1 antibody; VL/VH aa SEQ ID NO: 34/36 (antibody, listed as Homo sapiens, V domains shown) VH: EVQLLESGGGLVQPGGSLRLSCAASGFTFSSYDMFWVRQAPGKGLEWVSRISPSGGYTYYADSVKGRFTISRDNSKNTLYLQMNSLRAEDTAVYYCARLRYFDSRGYAFDIWGQGTMVTVSS VL: AQDIQMTQSPGTLSLSPGERATLSCRASQSVRSSYLAWYQQKPGQAPRLLIYGASTRATGIPDRFSGSGSGTDFTLTISRLEPEDFAVYYCQQYGTSRWTFGQGTKVEIK | did not inhibit RAGE binding; also recorded: do not at the concentrations tested | little difference in binding to immobilized or soluble HMG1 | 9.01 | specific for HMG1 |  |
| S16: human anti-HMG1 antibody, ATCC PTA-6259; VL/VH aa SEQ ID NO: 13/15 (antibody, listed as Homo sapiens, V domains shown) VH: EVQLLESGGGLVQPGGSLRLSCAASGFTFSWYSMLWVRQAPGKGLEWVSYISPSGGFTNYADSVKGRFTISRDNSKNTLYLQMNSLRAEDTAVYYCARWDYNSGWYYDHWGQGTLVTVSS VL: AQDIQMTQSPDTLSLSPGERATLSCRASQSVNSRNLAWYQQKPGQAPRLLIYGASTRATGIPDRFSGSVSGTEFTLTISSLQPDDFATYYCQQYNSYFTFGQGTKLEIK | significant ability to block the binding of HMG1 to RAGE | bound slightly better to immobilized rHMG1 | 8.11 | some binding to both HMG1 and HMG2 | binds both recombinant and native HMG1; also recorded: binding all forms of HMG1; also recorded: bind both forms of HMG1 |
| S12: human anti-HMG1 antibody; VL/VH aa SEQ ID NO: 62/64 (antibody, listed as Homo sapiens, V domains shown) VH: EVQLLESGGGLVQPGGSLRLSCAASGFTFSKYIMHWVRQAPGKGLEWVSGIVPSGGLTEYADSVKGRFTISRDNSKNTLYLQMNSLRAEDTATYYCAKEIFGQFDYWGQGTLVTVSS VL: AQSALTQPPSVSAAPRQRVTISCSGSTSNIGNNAVTWYQYFPGKAPKLLIYSDNQRPSGVPDRFSGSKSGTSASLAITGLQAEDEADYYCQSYDRGLSVVFGGGTKLTVL | do not at the concentrations tested | bound slightly better to immobilized rHMG1 | 8.73 | some binding to both HMG1 and HMG2 |  |
| E11: human anti-HMG1 antibody, recognizes HMG1 A-Box; VL/VH aa SEQ ID NO: 24/26 (antibody, listed as Homo sapiens, V domains shown) VH: EVQLLESGGGLVQPGGSLRLSCAASGFTFSRYQMNWVRQAPGKGLEWVSSISPSGGHTHYADSVKGRFTISRDNSKNTLYLQMNSLRAEDTAVYYCAKDGRQGKISTVDHWGQGTLVTVSS VL: AQDIQMTQSPGTLSLSPGERATLSCRASQSVRSNFLAWYQQKPGQAPRLLIYGASRRASGIPDRFSGSGFGADFTLSISRLEPEDFAVYYCQQYGSSPNTFGQGSRVEIK |  | bind better to soluble rHMG1; also recorded: higher affinity for soluble HMG1 | 8.92 | some binding to HMG2; also recorded: bind better to HMG2 than to HMG1; also recorded: higher binding affinity for HMG2 |  |
